Our source for the response values is publication PMC11194106.

This assay deals with Streptococcus pyogenes Cas9 (SpyCas9) (UniProt Q99ZW2). The assay can be described thus: SEC co-migration followed by SDS-PAGE, band intensity quantified. The conditions noted are these: parent: est. 99; read off a plot.
In the case of “AcrIIA28 from Streptococcus phage Javan 128 W45I”, the response is 3%.

Take “AcrIIA28 from Streptococcus phage Javan 128 K38W”: the response turned out to be 83%. In the case of “AcrIIA28 from Streptococcus phage Javan 128 K48D” it was 93%; in that of “AcrIIA28 from Streptococcus phage Javan 128 R41W”, 96%.

Turning to “AcrIIA28 from Streptococcus phage Javan 128 K7D”, the response turned out to be 41%. In the case of “AcrIIA28 from Streptococcus phage Javan 128 S34W” it was 97%. With “AcrIIA28 from Streptococcus phage Javan 128 S81W”, the response is 21%. In the case of “AcrIIA28 from Streptococcus phage Javan 128 H30W” it was 81%.
